Non-standard residues stand in square brackets, D forms with d. Cit = NC(=O)NCCC[C@H](N)C(=O)O; Orn = NCCC[C@H](N)C(=O)O
Target: T1, murine E^d MHC class II allele (Mus musculus, UniProt P01904+P01915)
T1 sequence (P01904 26-255): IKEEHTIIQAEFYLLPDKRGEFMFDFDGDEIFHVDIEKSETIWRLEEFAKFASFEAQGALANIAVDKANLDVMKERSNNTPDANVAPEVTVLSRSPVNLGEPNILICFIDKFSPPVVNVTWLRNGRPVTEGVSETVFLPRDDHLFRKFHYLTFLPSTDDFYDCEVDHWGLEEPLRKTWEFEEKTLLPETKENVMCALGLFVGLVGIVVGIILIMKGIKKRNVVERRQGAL
T1 sequence (P01915 27-264 limits assumed): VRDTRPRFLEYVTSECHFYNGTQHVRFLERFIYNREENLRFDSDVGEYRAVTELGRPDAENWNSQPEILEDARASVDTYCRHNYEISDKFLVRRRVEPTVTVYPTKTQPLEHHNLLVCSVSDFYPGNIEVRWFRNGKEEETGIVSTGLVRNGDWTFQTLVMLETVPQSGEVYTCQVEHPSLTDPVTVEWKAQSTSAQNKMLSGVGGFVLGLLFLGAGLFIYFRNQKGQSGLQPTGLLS
Test: processed antigen assay, E^d allele (APC pulsed with native HEL)
Type: cell-based
Set-up: The A20 and CH27 B cell lymphoma lines express H-2^d and H-2^k alleles, respectively; endogenous in cells; host or cells: A20 B cell lymphoma (mitomycin C-treated or paraformaldehyde-fixed)
Conditions: AE peptide 64 μM; for T cell response relative to baseline (None = 1.0), 5 μM HEL E^d, first value / T cell response relative to baseline (None = 1.0), 5 μM HEL E^d, second value / T cell response relative to baseline (None = 1.0), 10 μM HEL E^d, first value / T cell response relative to baseline (None = 1.0), 10 μM HEL E^d, second value / T cell response relative to baseline (None = 1.0), 20 μM HEL E^d, first value / T cell response relative to baseline (None = 1.0), 20 μM HEL E^d, second value: Table 29; for T cell response relative to baseline (None = 1.0), 5 μM HEL E^d, first value / T cell response relative to baseline (None = 1.0), 5 μM HEL E^d, second value: native HEL prepulse 5 μM; for T cell response relative to baseline (None = 1.0), 5 μM HEL E^d, first value / T cell response relative to baseline (None = 1.0), 10 μM HEL E^d, first value / T cell response relative to baseline (None = 1.0), 20 μM HEL E^d, first value: supernatant dilution 1:4 (first value); for T cell response relative to baseline (None = 1.0), 5 μM HEL E^d, second value / T cell response relative to baseline (None = 1.0), 10 μM HEL E^d, second value / T cell response relative to baseline (None = 1.0), 20 μM HEL E^d, second value: supernatant dilution 1:8 (second value); for T cell response relative to baseline (None = 1.00), E^d: Table 31
Experimental: In a third type of assay, the “processed antigen assay”, certain of the AE101 series of peptides inhibit stimulation of specific T cell hybridomas by antigenic peptides which are derived from the endogenous processing of a native protein antigen. This assay, which is related to the peptide prepulse assay, is performed by incubating APC with native protein antigen for 8 h, after which the pulsed APC are washed and treated with mitomycin C. Those pulsed APC are then combined with AE101 series peptides and T cell hybridomas and are incubated for 24 h. After that incubation, an aliquot of the culture supernatant is transferred to a second culture to measure T cell stimulation, as reflected in the effect of released interleukins on the growth of an interleukin-dependent, indicator cell line. During the 8 h incubation with native protein antigen, the protein antigen is taken into the APC. The native protein enters the processing pathway within the APC, where it is enzymatically cleaved to peptide fragments. Those peptide fragments with high affinity for the particular MHC class II molecules produced by the APC form antigenic peptide/MHC class II complexes which are transported to the cell surface. At the cell surface, the MHC class II molecules are contacted by the AE101 peptides, which cause the release of the antigenic peptide by the same mechanism proposed for the “peptide prepulse” assay above.
The “processed antigen assay” was carried out under essentially the same conditions as the “peptide prepulse assay”, with the following modifications. Untreated APC were incubated at 1×10^6/mL in 24-well plates (1 mL/well) with native protein antigen for 8 h. Following that incubation, the pulsed APC were washed, treated with mitomycin C, and washed again. AE101 series peptide was added at 64 μM, 16 μM, 4 μM, and 1 μM concentrations for 24 h in the presence of the T cell hybridoma specific for the antigenic peptide. Interleukin release from these cultures was measured by proliferation of HT-2 cells to interleukins in supernatants transferred from the primary culture. The baseline T cell response was measured by culturing T hybridoma cells with the native antigen-prepulsed APC in the absence of AE101 series peptides.
The “processed antigen assay” was carried out under essentially the same conditions as the “peptide prepulse” assay, with the following modifications. Untreated APC were incubated at 1×10^6/mL in 24-well plates (1 mL/well) with native protein antigen for 8 h. Following incubation, the pulsed APC were washed, treated with mitomycin C, and were washed again. The assay conditions were then as described for “peptide prepulse” above. The baseline T cell response was measured by culturing T hybridoma cells with the native antigen-prepulsed APC in the absence of AE101 peptides.
Table 2.9: Activities of substitution series at Leucine^80 in AE114 in a processed antigen assay. […] The results in this assay constitute, relatively, a mirror image of the result in the simultaneous assay (Example 1, Table 7) and parallel those of the antigenic peptide prepulse assay (Example 5, Table 24). Untreated APC were incubated with native HEL, instead of antigenic peptide, for 8 h. After incubation, the pulsed cells were washed and mitomycin C treated before being cocultured with AE-peptides and T cell hybridomas. Wells containing only T cells and native HEL-prepulsed APC were used to determine the Baseline response, or 1, in the absence of AE peptides. The concentration of AE peptide used was 64 μM for these assays. The supernatant dilutions used in the HT-2 cell assay were 1:4 (first value) and 1:8 (second value).

[1] = Table 30, native HEL prepulse 10 μM, supernatant dilution 1:8
[2] = native HEL prepulse 10 μM, supernatant dilution 1:4
[3] = Table 32, native HEL prepulse 20 μM, supernatant dilution 1:4

Ac-LRMK Cit PK-NH2 (Ac-LRMK[Cit]PK-NH2; SMILES CSCC[C@H](NC(=O)[C@H](CCCNC(=N)N)NC(=O)[C@H](CC(C)C)NC(C)=O)C(=O)N[C@@H](CCCCN)C(=O)N[C@@H](CCCNC(N)=O)C(=O)N1CCC[C@H]1C(=O)N[C@@H](CCCCN)C(N)=O) [AE226]
T cell response relative to baseline (None = 1.0), 5 μM HEL E^d, first value: 0.60,
T cell response relative to baseline (None = 1.0), 5 μM HEL E^d, second value: 0.34
T cell response relative to baseline (None = 1.0), 10 μM HEL E^d, first value (native HEL prepulse 10 μM): 0.68,
T cell response relative to baseline (None = 1.0), 10 μM HEL E^d, second value (native HEL prepulse 10 μM): 0.58
T cell response relative to baseline (None = 1.0), 20 μM HEL E^d, first value (native HEL prepulse 20 μM): 0.95,
T cell response relative to baseline (None = 1.0), 20 μM HEL E^d, second value (native HEL prepulse 20 μM): 0.87

Ac-LRLKYPk-NH2 [AE307]
T cell response relative to baseline (None = 1.0), E^d [1]: 0.48

Ac-LR[Orn]KLPK-NH2 [AE195]
T cell response relative to baseline (None = 1.00), E^d [2]: 0.31

Ac-LRMK[Orn]PK-NH2 [AE225]
T cell response relative to baseline (None = 1.0), 5 μM HEL E^d, first value: 0.26,
T cell response relative to baseline (None = 1.0), 5 μM HEL E^d, second value: 0.38
T cell response relative to baseline (None = 1.0), 10 μM HEL E^d, first value (native HEL prepulse 10 μM): 0.32,
T cell response relative to baseline (None = 1.0), 10 μM HEL E^d, second value (native HEL prepulse 10 μM): 0.30
T cell response relative to baseline (None = 1.0), 20 μM HEL E^d, first value (native HEL prepulse 20 μM): 0.59,
T cell response relative to baseline (None = 1.0), 20 μM HEL E^d, second value (native HEL prepulse 20 μM): 0.48

Ac-LR L KLPK-NH2 (Ac-LRLKLPK-NH2; not fully specified; printed as Ac-LR L KLPK-NH2) [AE206]
T cell response relative to baseline (None = 1.0), E^d [1]: 0.22
T cell response relative to baseline (None = 1.00), E^d [2]: 0.41
T cell response relative to baseline (None = 1.0), E^d [3]: 0.46

Ac-LRMK D PK-NH2 (Ac-LRMKDPK-NH2) [AE230]
T cell response relative to baseline (None = 1.0), 5 μM HEL E^d, first value: 0.81,
T cell response relative to baseline (None = 1.0), 5 μM HEL E^d, second value: 0.62
T cell response relative to baseline (None = 1.0), 10 μM HEL E^d, first value (native HEL prepulse 10 μM): 0.93,
T cell response relative to baseline (None = 1.0), 10 μM HEL E^d, second value (native HEL prepulse 10 μM): 0.77
T cell response relative to baseline (None = 1.0), 20 μM HEL E^d, first value (native HEL prepulse 20 μM): 1.1,
T cell response relative to baseline (None = 1.0), 20 μM HEL E^d, second value (native HEL prepulse 20 μM): 0.98

Ac-LRNKNPF-NH2 [AE348]
T cell response relative to baseline (None = 1.00), E^d [2]: 0.81

Ac-LRMKLP k-NH2 [AE166]
T cell response relative to baseline (None = 1.0), E^d [1]: 0.36

Ac-LRMK E PK-NH2 (Ac-LRMKEPK-NH2) [AE231]
T cell response relative to baseline (None = 1.0), 5 μM HEL E^d, first value: 0.96,
T cell response relative to baseline (None = 1.0), 5 μM HEL E^d, second value: 0.85
T cell response relative to baseline (None = 1.0), 10 μM HEL E^d, first value (native HEL prepulse 10 μM): 0.94,
T cell response relative to baseline (None = 1.0), 10 μM HEL E^d, second value (native HEL prepulse 10 μM): 0.83
T cell response relative to baseline (None = 1.0), 20 μM HEL E^d, first value (native HEL prepulse 20 μM): 1.0
T cell response relative to baseline (None = 1.0), 20 μM HEL E^d, second value (native HEL prepulse 20 μM): 1.1

Ac-LRMK l PK-NH2 [AE164]
T cell response relative to baseline (None = 1.0), E^d [1]: 0.64

Ac-LRMK (mL) PK-NH2 [AE175]
T cell response relative to baseline (None = 1.0), E^d [1]: 0.70

Ac-LR (mL) KLPK-NH2 [AE302]
T cell response relative to baseline (None = 1.0), E^d [1]: 0.51

Ac-LRM M LPK-NH2 (Ac-LRMMLPK-NH2) [AE220]
T cell response relative to baseline (None = 1.0), E^d [3]: 0.63

Ac-LRMKLPK-NH2 [AE114]
T cell response relative to baseline (None = 1.0), 5 μM HEL E^d, first value: 0.23,
T cell response relative to baseline (None = 1.0), 5 μM HEL E^d, second value: 0.37
T cell response relative to baseline (None = 1.0), 10 μM HEL E^d, first value (native HEL prepulse 10 μM): 0.29,
T cell response relative to baseline (None = 1.0), 10 μM HEL E^d, second value (native HEL prepulse 10 μM): 0.28
T cell response relative to baseline (None = 1.0), 20 μM HEL E^d, first value (native HEL prepulse 20 μM): 0.53,
T cell response relative to baseline (None = 1.0), 20 μM HEL E^d, second value (native HEL prepulse 20 μM): 0.44
T cell response relative to baseline (None = 1.0), E^d [1]: 0.22
T cell response relative to baseline (None = 1.00), E^d [2]: 0.49
T cell response relative to baseline (None = 1.0), E^d [3]: 0.40
T cell response relative to baseline (None = 1.0), E^d (Table 33, native HEL prepulse 10 μM, supernatant dilution 1:8): 0.37
Activity in processed antigen assay, E^d (baseline = 1.0) (Table 34, native HEL 10 μM prepulse, supernatant 1:8): 0.22

Ac-ARNKLPK-NH2 [AE344]
T cell response relative to baseline (None = 1.00), E^d [2]: 0.76

Ac- (mL) RMKLPK-NH2 [AE174]
T cell response relative to baseline (None = 1.0), E^d [1]: 0.86

Ac-LR N KLPK-NH2 (Ac-LRNKLPK-NH2) [AE202]
T cell response relative to baseline (None = 1.00), E^d [2]: 0.76

Ac-Y K MKLPKSAK-NH2 [AE134]
T cell response relative to baseline (None = 1.0), E^d [3]: 0.50

Ac-LRLKYPK-NH2 [AE301]
T cell response relative to baseline (None = 1.0), E^d [1]: 0.19
T cell response relative to baseline (None = 1.00), E^d [2]: 0.46
T cell response relative to baseline (None = 1.0), E^d [3]: 0.54

Ac-LRMK M PK-NH2 (Ac-LRMKMPK-NH2) [AE236]
T cell response relative to baseline (None = 1.0), 5 μM HEL E^d, first value: 0.41,
T cell response relative to baseline (None = 1.0), 5 μM HEL E^d, second value: 0.58
T cell response relative to baseline (None = 1.0), 10 μM HEL E^d, first value (native HEL prepulse 10 μM): 0.56,
T cell response relative to baseline (None = 1.0), 10 μM HEL E^d, second value (native HEL prepulse 10 μM): 0.53
T cell response relative to baseline (None = 1.0), 20 μM HEL E^d, first value (native HEL prepulse 20 μM): 0.76,
T cell response relative to baseline (None = 1.0), 20 μM HEL E^d, second value (native HEL prepulse 20 μM): 0.72

Ac-LR (mL) KyPk-NH2 [AE306]
T cell response relative to baseline (None = 1.0), E^d [1]: 0.68

Ac-Y[Cit]MKLPKSAK-NH2 [AE131]
T cell response relative to baseline (None = 1.00), E^d [2]: 0.49

Ac-ARNKNPF-NH2 [AE347]
T cell response relative to baseline (None = 1.00), E^d [2]: 0.80

Source: patent publication US6835382B2, “Ii peptide therapeutics to enhance antigen presentation” (University of Massachusetts, priority 1996, dated 2004)
